This note sets out measurements from US20170022275A1 (Dana-Farber, published 2017).

Assay [1] has as its target MICA antigen (UniGene Hs.130838) with C-terminal BirA tag (human) (UniProt Q29983). The experiment in a line: flow cytometry of MICA-coated streptavidin beads, antibody directly PE-conjugated; 0.002 µg/ml; uncoated SA bead: 2.16. On the technique in general: A flow cytometer gives signals particle by particle.
Assay [2] deals with MICA on the surface of cells (human) (UniProt Q29983). The experiment in a line: flow cytometry on B16 melanoma cells transduced with human MICA, antibody 10 µg/ml; B16 MICA unstained 11.4; same antibody on untransduced B16: 7.49 (B16 unstained 7.12).
In assay [3] the target is MICA antigen (UniGene Hs.130838) with C-terminal BirA tag (human) (UniProt Q29983). The experiment in a line: flow cytometry of MICA-coated streptavidin beads, antibody directly PE-conjugated; legend box says 0.005ug, the label in the panel says 1.2 µg/ml (they do not agree); uncoated SA bead: 1.98.
The target is the same in assay [4]. The experiment in a line: flow cytometry of MICA-coated streptavidin beads, antibody directly PE-conjugated; legend box says 0.12ug, the label in the panel says 0.05 µg/ml (they do not agree); uncoated SA bead: 1.95.
For assay [5] the target is unchanged. The experiment in a line: flow cytometry of MICA-coated streptavidin beads, antibody directly PE-conjugated; legend box says 0.001ug, the label in the panel says 0.24 µg/ml (they do not agree); uncoated SA bead: 1.95.
For assay [6] the target is unchanged. The experiment in a line: flow cytometry of MICA-coated streptavidin beads, antibody directly PE-conjugated; legend box says 0.024ug, the label in the panel says 0.01 µg/ml (they do not agree); uncoated SA bead: 1.95.
Assay [7] shares this target. The experiment in a line: flow cytometry of MICA-coated streptavidin beads, Alexa488 anti-human IgG; antibody 6 µg/ml; uncoated SA bead: 2.63.
The target is the same in assay [8]. The experiment in a line: flow cytometry of MICA-coated streptavidin beads, Alexa488 anti-human IgG; antibody 30 µg/ml; uncoated SA bead: 3.53.
For assay [9] the target is unchanged. The experiment in a line: flow cytometry of MICA-coated streptavidin beads, Alexa488 anti-human IgG; antibody 1.2 µg/ml; uncoated SA bead: 2.16.
Assay [10] has the same target. The experiment in a line: flow cytometry of MICA-coated streptavidin beads, Alexa488 anti-human IgG; antibody 0.24 µg/ml; uncoated SA bead: 2.3.
Assay [11] shares this target. The experiment in a line: flow cytometry of MICA-coated streptavidin beads, Alexa488 anti-human IgG; antibody 0.05 µg/ml; uncoated SA bead: 2.18.
In assay [12] the target is T1, MICA*009 (human, UniProt Q29983 26-307).
T1 construct: also called MICA allele 009
T1 chain: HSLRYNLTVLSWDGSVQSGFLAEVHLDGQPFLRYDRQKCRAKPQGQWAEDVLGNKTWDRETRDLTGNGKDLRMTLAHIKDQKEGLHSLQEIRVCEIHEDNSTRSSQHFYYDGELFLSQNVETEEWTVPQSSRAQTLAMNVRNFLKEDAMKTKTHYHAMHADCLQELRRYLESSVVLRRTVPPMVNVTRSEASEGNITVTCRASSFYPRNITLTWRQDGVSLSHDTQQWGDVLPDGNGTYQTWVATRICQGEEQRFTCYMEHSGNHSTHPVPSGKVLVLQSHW
The experiment in a line: array of overlapping 20-aa peptides of MICA*009 extracellular domains.

MICA antigen (UniGene Hs.130838) with C-terminal BirA tag (human), sequence (Q29983 other isoform, or with tags, fused parts or gaps limits assumed): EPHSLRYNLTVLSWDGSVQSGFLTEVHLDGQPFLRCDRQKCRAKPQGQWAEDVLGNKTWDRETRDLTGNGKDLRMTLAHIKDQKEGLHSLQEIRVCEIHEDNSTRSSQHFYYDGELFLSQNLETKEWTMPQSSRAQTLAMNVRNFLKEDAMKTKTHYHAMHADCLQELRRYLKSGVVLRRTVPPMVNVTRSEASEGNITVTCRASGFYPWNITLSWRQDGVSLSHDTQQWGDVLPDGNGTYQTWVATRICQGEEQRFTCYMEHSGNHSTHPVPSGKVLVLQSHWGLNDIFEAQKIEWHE
MICA on the surface of cells (human), sequence (Q29983 24-383): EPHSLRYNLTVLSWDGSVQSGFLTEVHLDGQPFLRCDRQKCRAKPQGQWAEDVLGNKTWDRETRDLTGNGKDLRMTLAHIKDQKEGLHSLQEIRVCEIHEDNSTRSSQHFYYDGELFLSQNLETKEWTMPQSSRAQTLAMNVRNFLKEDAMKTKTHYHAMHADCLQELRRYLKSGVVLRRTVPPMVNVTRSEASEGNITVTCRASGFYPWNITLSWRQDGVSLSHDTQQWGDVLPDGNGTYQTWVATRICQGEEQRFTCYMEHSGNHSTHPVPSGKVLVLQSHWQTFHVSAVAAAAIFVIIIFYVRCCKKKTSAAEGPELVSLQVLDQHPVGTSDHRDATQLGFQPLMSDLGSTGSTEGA

Take “commercially available anti-MICA/MICB monoclonal antibody (clone 6D4), BioLegend”: the unnamed fluorescence number (FL2-H) amounted to 4.31 in [1]; 65.9 in assay [3]; 391 in assay [4]; 16.8 in assay [5]; 194 in assay [6]. This molecule registered a Geom. Mean:FL1-H in [2] of 188.
On to “negative control antibody (TTCF specific)”, for which the unnamed fluorescence number (FL1-H) in assay [7] is 2.62; in assay [8], 3.43; in [9], 2.27; in assay [10], 2.28; in [11] it was 2.23.

B1: CM33322 Ab4 (antibody, V domains shown)
VH: QVQLQESGPGLVRPSGTLSLTCAVSGGSIDYSNWWGWVRQVPGKGLEWIGEVYHTGATHYNPSLERRCIISVDKSNNQVSLQLTSVTAADSAIYYCARERGTHCDGNRCYYVFFDHWGQGIPVTVSS
VL: DIVMTQTPLSSPVTLGQPASISCRSSESLVHWDGTTYLSWFHQRPGQPPRLLIYKVSNRFSGVPDRFSGSGAGTDFTLKISRVEADDVGIYYCMQATQFPRTFGQGTKVEIKR
notes: also called anti-MICA antibody ID-11; antibody ID 11
For B1, the binding result in assay [12] is recorded as “binds”.
